These results are taken from publication PMC4777393, “Structural Basis for Recognition of Human Enterovirus 71 by a Bivalent Broadly Neutralizing Monoclonal Antibody” (PLoS Pathogens, 2016).

The target in assay [1] is EV71 mature virion (F-particle), inactivated. The experiment in a line: ELISA. Conditions: read off a plot. On the technique in general: An ELISA detects its analyte on a solid surface through an enzyme-linked reagent.
The target of assay [2] is SP70 peptide (amino acid residues 208 to 222 of EV71 VP1) (UniProt Q66478). The experiment in a line: ELISA. Particulars: read off a plot.
Assay [3] concerns the target EV71 procapsid (E-particle), inactivated. Description: ELISA. Particulars: read off a plot.
In assay [4] the target is EV71 virus-like particle (VLP). The experiment in a line: ELISA. Particulars: read off a plot.
The next assay addresses SCARB2-Fc (UniProt Q14108). Description: pull-down with SCARB2-Fc and anti-human Fc IgG conjugated beads, quantified by qRT-PCR. Particulars: 4°C; parent: est. 100; read off a plot.
The target of assay [5] is T1, EV71 mature virion (F-particle), inactivated (Enterovirus A71, strain of the …).
T1 construct: VP1 of enterovirus 71, cut product of the polyprotein; PDB 3VBS is the crystal structure fitted into the map and may be of another strain; numbers count on: the mature VP1 chain; VP2 of enterovirus 71, cut product of VP0 of the polyprotein; numbers count on: the mature VP2 chain; VP3 of enterovirus 71, cut product of the polyprotein; numbers count on: the mature VP3 chain; VP4 of enterovirus 71, …
T1 chain 1: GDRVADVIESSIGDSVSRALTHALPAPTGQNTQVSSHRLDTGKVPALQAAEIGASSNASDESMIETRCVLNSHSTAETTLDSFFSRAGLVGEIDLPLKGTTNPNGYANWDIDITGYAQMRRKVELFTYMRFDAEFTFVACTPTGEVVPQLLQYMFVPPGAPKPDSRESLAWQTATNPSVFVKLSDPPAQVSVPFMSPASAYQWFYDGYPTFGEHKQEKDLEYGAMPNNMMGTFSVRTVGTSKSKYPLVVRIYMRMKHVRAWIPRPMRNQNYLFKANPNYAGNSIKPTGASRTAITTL
T1 chain 2: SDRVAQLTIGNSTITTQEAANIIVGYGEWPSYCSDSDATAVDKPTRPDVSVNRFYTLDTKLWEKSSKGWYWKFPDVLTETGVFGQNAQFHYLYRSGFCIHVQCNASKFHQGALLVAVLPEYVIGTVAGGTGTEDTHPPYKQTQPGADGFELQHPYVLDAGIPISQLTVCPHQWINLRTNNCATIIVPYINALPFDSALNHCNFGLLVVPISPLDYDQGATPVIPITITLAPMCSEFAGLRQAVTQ
T1 chain 3: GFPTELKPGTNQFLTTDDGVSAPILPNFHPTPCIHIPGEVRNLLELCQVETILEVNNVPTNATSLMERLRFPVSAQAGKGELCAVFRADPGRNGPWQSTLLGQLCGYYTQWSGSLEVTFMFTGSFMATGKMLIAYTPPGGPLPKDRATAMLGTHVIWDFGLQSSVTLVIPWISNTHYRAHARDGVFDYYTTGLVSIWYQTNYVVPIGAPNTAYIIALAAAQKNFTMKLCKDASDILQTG
Description: BLI; Octet RED 96; biotin-labelled inactivated F-particles on streptavidin tips; D5 IgG or Fab at 40 to 0.0128 μg/ml; kinetics buffer (PBS, 0.1% BSA, 0.02% Tween-20), room temperature; called avidities. Particulars: both partners purified. Background: BLI is a label-free optical method that tracks binding on a fibre tip over time.

Assay [6] has as its target EV71/G082 wild-type virus (enterovirus 71 strain EV71/G082).
The target is the same in assay [7]. The source holds these as a separate data set.
The target is the same in assay [8]. This is another data set of the same source.
The target of assay [9] is T2, SP70 peptide (amino acid residues 208 to 222 of EV71 VP1) (Enterovirus 71; stretch identical among …).
T2 construct: VP1 of enterovirus 71, residues 208 to 222, corresponding to the GH-loop; Q66478 is strain BrCr; numbers count on: the mature VP1 chain
T2 chain: YPTFGEHKQEKDLEY
Description: ELISA; plates coated with 20 ng/well E-particle, F-particle or VLP or 100 ng/well SP70 peptide; serially diluted scFv 2 h at 37°C; detected with HRP anti-His antibody. Conditions: both partners purified.

The mark [10] stands for this setting: 6.25 ng/well, parent: est. 0.52.
The mark [11] stands for this setting: 6.25 ng/well, parent: est. 0.83.

Residue numbers refer to the chain shown, from its start.

Chain of SCARB2-Fc (Q14108 whole entry): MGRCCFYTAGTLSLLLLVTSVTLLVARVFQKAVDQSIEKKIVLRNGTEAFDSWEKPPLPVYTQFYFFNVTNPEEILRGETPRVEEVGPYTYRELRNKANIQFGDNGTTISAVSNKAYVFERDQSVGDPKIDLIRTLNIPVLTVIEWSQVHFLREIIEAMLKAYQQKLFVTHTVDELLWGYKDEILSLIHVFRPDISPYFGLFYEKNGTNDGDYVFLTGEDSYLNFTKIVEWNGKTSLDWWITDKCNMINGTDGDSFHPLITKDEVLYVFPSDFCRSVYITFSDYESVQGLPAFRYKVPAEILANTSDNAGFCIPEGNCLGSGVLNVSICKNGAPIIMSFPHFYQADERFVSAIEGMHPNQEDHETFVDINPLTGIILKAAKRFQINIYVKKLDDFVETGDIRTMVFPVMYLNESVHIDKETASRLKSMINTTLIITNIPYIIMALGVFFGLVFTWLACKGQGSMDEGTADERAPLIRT

As to “D5 wild-type single-chain variable fragment (scFv-WT) D104A”, the response in assay [1] (400 ng/well, parent: est. 1.0) was 0.09 OD450nm; in [2] (400 ng/well, parent: est. 3.1) it was 0.05 OD450nm; in [3] (400 ng/well, parent: est. 2.1), 0.08 OD450nm; in [4] (400 ng/well, parent: est. 1.8), 0.05 OD450nm.
Take “D5 wild-type single-chain variable fragment (scFv-WT) F103A”: the response was 0.18 OD450nm in assay [1] (setting [10]); 0.42 OD450nm in [1] (25 ng/well, parent: est. 0.76); 0.7 OD450nm in assay [1] (100 ng/well, parent: est. 0.88); 0.86 OD450nm in assay [1] (400 ng/well, parent: est. 1.0); 0.3 OD450nm in assay [2] (setting [11]); 0.95 OD450nm in assay [2] (25 ng/well, parent: est. 2.0). Further, the response in assay [2] (100 ng/well, parent: est. 3.0) was 2.2 OD450nm; in assay [2] (400 ng/well, parent: est. 3.1) it was 2.7 OD450nm; in assay [3] (6.25 ng/well, parent: est. 1.8), 0.82 OD450nm; in assay [3] (25 ng/well, parent: est. 2.1), 1.6 OD450nm; in assay [3] (100 ng/well, parent: est. 2.2), 2.2 OD450nm; in assay [3] (400 ng/well, parent: est. 2.1), 2.2 OD450nm. Further, the response in assay [4] (6.25 ng/well, parent: est. 1.3) came out at 0.48 OD450nm; in assay [4] (25 ng/well, parent: est. 1.6), 1.1 OD450nm; in [4] (100 ng/well, parent: est. 1.8), 1.6 OD450nm; in [4] (400 ng/well, parent: est. 1.8), 1.7 OD450nm.
For the molecule “D5 wild-type single-chain variable fragment (scFv-WT) F105A”, the response in assay [1] (400 ng/well, parent: est. 1.0) was 0.12 OD450nm; in assay [2] (400 ng/well, parent: est. 3.1), 0.05 OD450nm; in assay [3] (400 ng/well, parent: est. 2.1), 0.43 OD450nm; in assay [4] (400 ng/well, parent: est. 1.8), 0.2 OD450nm.
As for “D5 wild-type single-chain variable fragment (scFv-WT) N100A”, the response came out at 0.43 OD450nm in assay [1] (setting [10]); 0.67 OD450nm in assay [1] (25 ng/well, parent: est. 0.76); 0.9 OD450nm in assay [1] (100 ng/well, parent: est. 0.88); 1 OD450nm in assay [1] (400 ng/well, parent: est. 1.0); 0.43 OD450nm in [2] (setting [11]); 1.3 OD450nm in assay [2] (25 ng/well, parent: est. 2.0). Besides, the response in assay [2] (100 ng/well, parent: est. 3.0) was determined as 2.7 OD450nm; in [2] (400 ng/well, parent: est. 3.1) it was 3 OD450nm; in assay [3] (6.25 ng/well, parent: est. 1.8) it was 1.7 OD450nm; in [3] (25 ng/well, parent: est. 2.1) it was 2.1 OD450nm; in assay [3] (100 ng/well, parent: est. 2.2), 2.4 OD450nm; in [3] (400 ng/well, parent: est. 2.1), 2.2 OD450nm. For the same molecule, the response amounted to 1.1 OD450nm in assay [4] (6.25 ng/well, parent: est. 1.3); 1.4 OD450nm in [4] (25 ng/well, parent: est. 1.6); 1.8 OD450nm in assay [4] (100 ng/well, parent: est. 1.8); 1.8 OD450nm in [4] (400 ng/well, parent: est. 1.8).
On to “D5 wild-type single-chain variable fragment (scFv-WT) W102A”, for which the response in assay [1] (400 ng/well, parent: est. 1.0) stood at 0.1 OD450nm; in [2] (400 ng/well, parent: est. 3.1), 0.05 OD450nm; in assay [3] (400 ng/well, parent: est. 2.1), 0.3 OD450nm; in assay [4] (400 ng/well, parent: est. 1.8), 0.19 OD450nm.
Take “D5 wild-type single-chain variable fragment (scFv-WT) Y101A”: the response in [1] (400 ng/well, parent: est. 1.0) came to 0.15 OD450nm; in assay [2] (400 ng/well, parent: est. 3.1), 0.05 OD450nm; in assay [3] (400 ng/well, parent: est. 2.1) it was 0.3 OD450nm.
As for EV71/G082 wild-type virus K218E, in the assay with SCARB2-Fc, the percent of parent is 65%.
On the same count and under the same terms, to EV71/G082 wild-type virus K218T belongs 84%.

B1: D5 intact IgG (antibody, V domains shown)
VH: EVQLQQSGAELVKPGASVKLSCTASGFNIKDTYIHWVKQRPEQGLEWIGKIDPANGNTKYDPKFQDKATITADTSSNTAYLQLSSLTSEDTAVYYCANSNYWFDFDYWGQGTTLTVSS
VL: DVLMTQTPLSLPVSLGDQASISCRSSQSIVHSNGNTYLEWYLQKPGQSPKLLIYKVSNRFSGVPDRFSGSGSGTDFTLKISRVEADDVGVYYCYQGSHVPYTFGGGTKLEIK
notes: variable region of the D5 heavy chain (VH, 1-118 aa); constant region of the mouse IgG heavy chain; variable region of the D5 light chain (VL, 1-113 aa); constant region of the mouse light chain; also called MAb D5; mAb D5; source: D5 hybridoma (mouse)
Turning to B1, the Kd in assay [5] amounted to 6 nM. This molecule also showed an IC50 of neutralization of EV71 G082 on RD cells, post-attachment neutralization assay in [6] of 10.1 nM. Moreover, the IC50 of neutralization of EV71 G082 (100 TCID50) on RD cells, standard neutralization assay, MTT in assay [7] worked out at 2.23 nM. In [8], this molecule yielded an IC50 of neutralization (50% inhibition of cell death, MTT assay), EV71/G082 of 0.183 µg/mL and a Neutralization concentration (lowest antibody concentration that fully prevents CPE), EV71/G082 of 0.313 µg/mL.

B2: D5 wild-type single-chain variable fragment (scFv-WT) (scFv, V domains shown)
VH: B1 VH
VL: B1 VL
notes: variable region of the D5 heavy chain (VH, 1-118 aa); 11-amino acid residue (GGGGS)2G linker; variable region of the D5 light chain (VL, 1-113 aa); Cloned in pET28b; also called wild-type scFv; VH-(GGGGS)2G-VL; source: E. coli BL21, purified from the soluble fraction (Ni-NTA)
Regarding B2, in assay [9], the binding result is “binds”.

B3: D5 Fab (Fab, V domains shown)
VH: B1 VH
VL: B1 VL
notes: variable region of the D5 heavy chain (VH, 1-118 aa), as the heavy chain of m1; constant part of the Fab heavy chain left by papain; variable region of the D5 light chain (VL, 1-113 aa), as the light chain of m1; constant region of the mouse light chain; also called Fab of D5; D5 Fab fragment; source: papain digestion of D5 IgG, purified (Hitrap Protein G, Sephacryl S-100)
The molecule B3 came in with a Kd in [5] of 15 nM. This molecule returned an IC50 of neutralization of EV71 G082 on RD cells, post-attachment neutralization assay in [6] of 191 nM. Also, the IC50 of neutralization of EV71 G082 (100 TCID50) on RD cells, standard neutralization assay, MTT in assay [7] was determined as 37.4 nM.

B4: D5 scFv-N100A (scFv, V domains shown)
VH: B1 VH with N100A
VL: B1 VL
notes: variable region of the D5 heavy chain (VH, 1-118 aa), as the VH of m3 with the stated change; 11-amino acid residue (GGGGS)2G linker; variable region of the D5 light chain (VL, 1-113 aa), as the VL of m3; Point mutant of m3 in the heavy chain CDR3; source: E. coli BL21, purified from the soluble fraction (Ni-NTA)
Consider B4, for which the binding result in assay [9] is on record as “binds”.

B5: D5 scFv-F103A (scFv, V domains shown)
VH: B1 VH with F103A
VL: B1 VL
notes: as for B4
Regarding B5, the binding result in assay [9] is “binds”.

One may read the Kd as a measure of binding affinity in units of concentration. Low values mean a tighter complex, high ones a looser complex.
